The results in this text go back to publication PMC2835468 (Matrix biology : journal of the International Society for …, 2009).

Common to all, as to assay: enzyme inhibition kinetics
Experiment [1] has as its target T1, ADAMTS5-2 (human ADAMTS-5 deletion mutant, C-terminal FLAG-tag) (human, UniProt Q9UNA0 262-874).
T1 sequence (looked up): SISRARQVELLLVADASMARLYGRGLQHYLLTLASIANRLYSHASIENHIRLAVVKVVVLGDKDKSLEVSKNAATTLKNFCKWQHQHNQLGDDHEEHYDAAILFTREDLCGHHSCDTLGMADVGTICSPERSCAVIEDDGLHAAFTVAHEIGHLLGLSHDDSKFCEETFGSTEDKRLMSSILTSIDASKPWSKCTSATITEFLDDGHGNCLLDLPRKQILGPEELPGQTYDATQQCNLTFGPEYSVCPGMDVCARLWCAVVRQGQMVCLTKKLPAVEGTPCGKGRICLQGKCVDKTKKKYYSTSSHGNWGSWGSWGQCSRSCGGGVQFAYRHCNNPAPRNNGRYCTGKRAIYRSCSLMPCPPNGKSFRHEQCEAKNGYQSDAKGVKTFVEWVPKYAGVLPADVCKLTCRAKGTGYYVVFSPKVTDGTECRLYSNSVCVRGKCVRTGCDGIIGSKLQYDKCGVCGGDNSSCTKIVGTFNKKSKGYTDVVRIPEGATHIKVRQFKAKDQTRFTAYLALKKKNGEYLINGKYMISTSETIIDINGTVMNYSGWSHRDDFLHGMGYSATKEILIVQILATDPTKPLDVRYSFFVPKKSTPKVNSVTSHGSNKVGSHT

Experiment [2] concerns the target T2, ADAMTS5-3 (human ADAMTS-5 deletion mutant, C-terminal FLAG-tag) (human, UniProt Q9UNA0 262-731).
T2 sequence (looked up): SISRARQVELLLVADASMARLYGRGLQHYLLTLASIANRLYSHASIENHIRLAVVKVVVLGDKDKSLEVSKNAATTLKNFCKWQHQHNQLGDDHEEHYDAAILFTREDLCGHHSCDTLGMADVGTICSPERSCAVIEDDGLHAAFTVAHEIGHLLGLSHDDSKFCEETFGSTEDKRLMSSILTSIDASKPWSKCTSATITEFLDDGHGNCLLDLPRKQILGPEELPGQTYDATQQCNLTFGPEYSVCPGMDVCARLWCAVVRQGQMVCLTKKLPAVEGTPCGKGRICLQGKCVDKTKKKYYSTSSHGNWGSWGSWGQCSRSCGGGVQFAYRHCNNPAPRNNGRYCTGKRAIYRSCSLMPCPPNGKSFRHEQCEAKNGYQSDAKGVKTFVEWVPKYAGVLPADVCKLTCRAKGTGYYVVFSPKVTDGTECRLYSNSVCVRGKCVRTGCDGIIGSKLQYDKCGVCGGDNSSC

The target of experiment [3] is T3, ADAMTS5-4 (human ADAMTS-5 deletion mutant, C-terminal FLAG-tag) (human, UniProt Q9UNA0 262-622).
T3 sequence (looked up): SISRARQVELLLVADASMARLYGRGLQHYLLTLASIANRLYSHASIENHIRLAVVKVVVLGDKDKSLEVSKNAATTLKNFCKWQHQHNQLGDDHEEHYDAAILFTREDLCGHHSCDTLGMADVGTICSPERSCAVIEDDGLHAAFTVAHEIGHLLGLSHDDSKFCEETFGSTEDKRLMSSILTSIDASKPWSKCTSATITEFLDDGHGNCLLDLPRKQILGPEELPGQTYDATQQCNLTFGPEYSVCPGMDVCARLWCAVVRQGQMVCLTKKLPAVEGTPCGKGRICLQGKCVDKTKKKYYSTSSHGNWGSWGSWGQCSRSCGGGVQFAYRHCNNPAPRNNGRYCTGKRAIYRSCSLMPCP

In experiment [4] the target is T4, ADAMTS5-5 (human ADAMTS-5, catalytic and disintegrin domain, C-terminal FLAG-tag) (human, UniProt Q9UNA0 262-566).
T4 sequence (looked up): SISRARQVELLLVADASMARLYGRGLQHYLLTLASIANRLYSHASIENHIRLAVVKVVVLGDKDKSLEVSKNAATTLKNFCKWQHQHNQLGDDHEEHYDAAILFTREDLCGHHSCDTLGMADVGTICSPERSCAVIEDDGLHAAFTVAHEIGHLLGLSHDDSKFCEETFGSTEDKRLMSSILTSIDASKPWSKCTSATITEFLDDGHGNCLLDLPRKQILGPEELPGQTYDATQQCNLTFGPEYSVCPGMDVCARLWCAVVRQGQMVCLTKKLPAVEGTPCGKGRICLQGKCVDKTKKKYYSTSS

B1: FLAG-tagged glycosylated human TIMP-3 (full-length tissue inhibitor of metalloproteinases 3), expressed in HEK293 (natural protein, UniProt P35625 24-211, looked up)
chain: CTCSPSHPQDAFCNSDIVIRAKVVGKKLVKEGPFGTLVYTIKQMKMYRGFTKMPHVQYIHTEASESLCGLKLEVNKYQYLLTGRVYDGKMYTGLCNFVERWDQLTLSQRKGLNYRYHLGCNCKIKSCYYLPCFVTSKNECLWTDMLSNFGYPGYQSKHYACIRQKGGYCSWYRGWAPPDKSIINATDP
modifications: glycosylated (only the 27 kDa glycosylated form remained after purification; single N-glycosylation site in the C-terminal domain)
What is called Ki is a measure of affinity in units of concentration, obtained from inhibition or displacement. Read a high Ki as lower affinity. Take B1: the Ki is 0.72 nM in experiment [1], 1 nM in experiment [2], 1.13 nM in experiment [3] and 1.17 nM in experiment [4].
